{"source": "paper PMC11254934", "target": "anti-fuc-PSA mAb 2E9 (rabbit)", "sequence (heavy, as listed by the source, chain 1 of 2)": "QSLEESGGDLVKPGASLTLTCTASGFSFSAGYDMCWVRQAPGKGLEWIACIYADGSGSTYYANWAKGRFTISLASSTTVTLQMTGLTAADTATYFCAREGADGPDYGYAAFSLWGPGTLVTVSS", "sequence (light, as listed by the source, chain 2 of 2)": "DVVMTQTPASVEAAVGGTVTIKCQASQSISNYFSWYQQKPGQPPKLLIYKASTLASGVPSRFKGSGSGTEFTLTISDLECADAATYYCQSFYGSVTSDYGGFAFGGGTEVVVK", "experiment": "SPR; Biacore 8k, 37 °C, HBS-ET (10 mM HEPES pH 7.4, 150 mM NaCl, 3 mM EDTA, 0.005% Tween 20) with 1 mg/mL carboxymethyl dextran; rabbit IgG from culture supernatant captured by goat anti-rabbit Fcγ on CM5; peptides injected at 0, 11, 33, 100, 300, 900 nM; Langmuir fit", "note": "No end group written: not given here. *: point of attachment. G0F = octasaccharide N-glycan with core α-1,6-fucose, CC(=O)N[C@@H]1[C@@H](O)[C@H](O[C@@H]2O[C@H](CO)[C@@H](O[C@@H]3O[C@H](CO[C@H]4O[C@H](CO)[C@@H](O)[C@H](O)[C@@H]4O[C@@H]4O[C@H](CO)[C@@H](O)[C@H](O)[C@H]4NC(C)=O)[C@@H](O)[C@H](O[C@H]4O[C@H](CO)[C@@H](O)[C@H](O)[C@@H]4O[C@@H]4O[C@H](CO)[C@@H](O)[C@H](O)[C@H]4NC(C)=O)[C@@H]3O)[C@H](O)[C@H]2NC(C)=O)[C@@H](CO[C@@H]2O[C@@H](C)[C@@H](O)[C@@H](O)[C@@H]2O)O[C@H]1*", "data": [{"binder": "IRN(G0F)KSVILLGRHS", "note": "[PSA(67–79)-G0F]", "values": [{"measurement": "BL (binding late)", "value": 27, "unit": "RU"}, {"measurement": "Kd", "value": 0.6, "unit": "nM"}, {"measurement": "stoichiometry N", "value": 2}, {"measurement": "t1/2 (antibody–antigen complex half-life)", "value": 10, "unit": "min"}]}]}
